Data taken from paper PMC8836807 (Science Advances, 2022).

Biological target: 6His-Nup60 aa27–539ΔHRΔFG-mGFP-StrepII (budding yeast (S. cerevisiae), UniProt P39705 27-539, ΔHR (aa48–162) | ΔFG (aa381–504))
Experiment: GUV co-recruitment assay

- binding result: binds
B1: 6His-SUMO-Nup2 aa83–136–TagmBFPII-StrepII (domain or fragment, budding yeast (S. cerevisiae), UniProt P32499 83-136, looked up)
chain: NSPTTESNSRLKALNLQFKAKVDDLVLGKPLADLRPLFTRYELYIKNILEAPVK
